Laboratory results reported in patent US8173600.

Target: T1, 2-Quinolinylcarbonyl-L-Valinyl-L-Aspartyl (methyl ester)-L-Valinyl-L-Alanyl-L-Aspartyl (methyl ester) 2,6-difluorophenyl ester
T1 chain: VDVAD

B1: human recombinant caspase-8 (protein)
chain: SESQTLDKVYQMKSKPRGYCLIINNHNFAKAREKVPKLHSIRDRNGTHLDAGALTTTFEELHFEIKPHDDCTVEQIYEILKIYQLMDHSNMDCFICCILSHGDKGIIYGTDGQEAPIYELTSQFTGLKCPSLAGKPKVFFIQACQGDNYQKGIPVETDSEEQPYLEMDLSSPQTRYIPDEADFLLGMATVNNCVSYRNPAEGTWYIQSLCQSLRERCPRGDDILTILTEVNYEVSNKDDKKNMGKQMPQPTFTLRKKLVFPSD
  in vitro cleavage of Ac-IETD-AMC by the recombinant caspase: no cross reactivity against other caspases

B2: human recombinant caspase-9 (protein)
chain: MDEADRRLLRRCRLRLVEELQVDQLWDALLSRELFRPHMIEDIQRAGSGSRRDQARQLIIDLETRGSQALPLFISCLEDTGQDMLASFLRTNRQAAKLSKPTLENLTPVVLRPEIRKPEVLRPETPRPVDIGSGGFGDVGALESLRGNADLAYILSMEPCGHCLIINNVNFCRESGLRTRTGSNIDCEKLRRRFSSLHFMVEVKGDLTAKKMVLALLELAQQDHGALDCCVVVILSHGCQASHLQFPGAVYGTDGCPVSVEKIVNIFNGTSCPSLGGKPKLFFIQACGGEQKDHGFEVASTSPEDESPGSNPEPDATPFQEGLRTFDQLDAISSLPTPSDIFVSYSTFPGFVSWRDPKSGSWYVETLDDIFEQWAHSEDLQSLLLRVANAVSVKGIYKQMPGCFNFLRKKLFFKTS
  in vitro cleavage of Ac-LEHD-AMC by the recombinant caspase: no cross reactivity against other caspases

B3: human recombinant caspase-10 (protein)
chain: VKTFLEALPQESWQNKHAGSNGNRATNGAPSLVSRGMQGASANTLNSETSTKRAAVYRMNRNHRGLCVIVNNHSFTSLKDRQGTHKDAEILSHVFQWLGFTVHIHNNVTKVEMEMVLQKQKCNPAHADGDCFVFCILTHGRFGAVYSSDEALIPIREIMSHFTALQCPRLAEKPKLFFIQACQGEEIQPSVSIEADALNPEQAPTSLQDSIPAEADFLLGLATVPGYVSFRHVEEGSWYIQSLCNHLKKLVPRMLKFLEKTMEIRGRKRTVWGAKQISATSLPTAISAQTPRPPMRRWSSVS
  in vitro cleavage of Ac-IETD-AMC by the recombinant caspase: no cross reactivity against other caspases

B4: caspase-2 in brain of ischemic rat pups (protein)
chain: GPPCLQVKPCTPEFYQAHYQLAYRLQSQPRGLALVMSNVHFTGEKDLEFRSGGDVDHTTLVTLFKLLGYNVHVLYDQTAQEMQEKLQNFAQLPAHRVTDSCIVALLSHGVEGGIYGVDGKLLQLQEVFRLFDNANCPSLQNKPKMFFIQACRGDETDRGVDQQDGKNHAQSPGCEESDAGKEELMKMRLPTRSDMICGYACLKGNAAMRNTKRGSWYIEALTQVFSERACDMHVADMLVKVNALIKEREGYAPGTEFHRCKEMSEYCSTLCQQLYLFPGYPPT
  caspase-2 activity (VDVAD-AMC cleavage) and caspase-2 processing (western blot) in brain homogenates: it inhibited caspase-2 activity as well as caspase-2 processing in brain of ischemic rat pups

B5: human recombinant caspase-1 (protein)
chain: NPAMPTSSGSEGNVKLCSLEEAQRIWKQKSAEIYPIMDKSSRTRLALIICNEEFDSIPRRTGAEVDITGMTMLLQNLGYSVDVKKNLTASDMTTELEAFAHRPEHKTSDSTFLVFMSHGIREGICGKKHSEQVPDILQLNAIFNMLNTKNCPSLKDKPKVIIIQACRGDSPGVVWFKDSVGVSGNLSLPTTEEFEDDAIKKAHIEKDFIAFCSSTPDNVSWRHPTMGSVFIGRLIEHMQEYACSCDVEEIFRKVRFSFEQPDGRAQMPTTERVTLTRCFYLFPGH
  in vitro cleavage of Ac-YVAD-AMC by the recombinant caspase: no cross reactivity against other caspases

B6: human recombinant caspase-3 (protein)
chain: SGISLDNSYKMDYPEMGLCIIINNKNFHKSTGMTSRSGTDVDAANLRETFRNLKYEVRNKNDLTREEIVELMRDVSKEDHSKRSSFVCVLLSHGEEGIIFGTNGPVDLKKITNFFRGDRCRSLTGKPKLFIIQACRGTELDCGIETDSGVDDDMACHKIPVEADFLYAYSTAPGYYSWRNSKDGSWFIQSLCAMLKQYADKLEFMHILTRVNRKVATEFESFSFDATFHAKKQIPCIVSMLTKELYFYH
  in vitro cleavage of Ac-DEVD-AMC by the recombinant caspase: no cross reactivity against other caspases

B7: human recombinant caspase-4 (protein)
chain: QISPNKKAHPNMEAGPPESGESTDALKLCPHEEFLRLCKERAEEIYPIKERNNRTRLALIICNTEFDHLPPRNGADFDITGMKELLEGLDYSVDVEENLTARDMESALRAFATRPEHKSSDSTFLVLMSHGILEGICGTVHDEKKPDVLLYDTIFQIFNNRNCLSLKDKPKVIIVQACRGANRGELWVRDSPASLEVASSQSSENLEEDAVYKTHVEKDFIAFCSSTPHNVSWRDSTMGSIFITQLITCFQKYSWCCHLEEVFRKVQQSFETPRAKAQMPTIERLSMTRYFYLFPGN
  in vitro cleavage of Ac-WEHD-AMC by the recombinant caspase: no cross reactivity against other caspases

B8: human recombinant caspase-5 (protein)
chain: DQKITSVKPLLQIEAGPPESAESTNILKLCPREEFLRLCKKNHDEIYPIKKREDRRRLALIICNTKFDHLPARNGAHYDIVGMKRLLQGLGYTVVDEKNLTARDMESVLRAFAARPEHKSSDSTFLVLMSHGILEGICGTAHKKKKPDVLLYDTIFQIFNNRNCLSLKDKPKVIIVQACRGEKHGELWVRDSPASLALISSQSSENLEADSVCKIHEEKDFIAFCSSTPHNVSWRDRTRGSIFITELITCFQKYSCCCHLMEIFRKVQKSFEVPQAKAQMPTIERATLTRDFYLFPGN
  in vitro cleavage of Ac-WEHD-AMC by the recombinant caspase: no cross reactivity against other caspases

B9: human recombinant caspase-6 (protein)
chain: AFYKREMFDPAEKYKMDHRRRGIALIFNHERFFWHLTLPERRGTCADRDNLTRRFSDLGFEVKCFNDLKAEELLLKIHEVSTVSHADADCFVCVFLSHGEGNHIYAYDAKIEIQTLTGLFKGDKCHSLVGKPKIFIIQACRGNQHDVPVIPLDVVDNQTEKLDTNITEVDAASVYTLPAGADFLMCYSVAEGYYSHRETVNGSWYIQDLCEMLGKYGSSLEFTELLTLVNRKVSQRRVDFCKDPSAIGKKQVPCFASMLTKKLHFFPKSN
  in vitro cleavage of Ac-VEID-AMC by the recombinant caspase: no cross reactivity against other caspases

B10: human recombinant caspase-7 (protein)
chain: AKPDRSSFVPSLFSKKKKNVTMRSIKTTRDRVPTYQYNMNFEKLGKCIIINNKNFDKVTGMGVRNGTDKDAEALFKCFRSLGFDVIVYNDCSCAKMQDLLKKASEEDHTNAACFACILLSHGEENVIYGKDGVTPIKDLTAHFRGDRCKTLLEKPKLFFIQACRGTELDDGIQADSGPINDTDANPRYKIPVEADFLFAYSTVPGYYSWRSPGRGSWFVQALCSILEEHGKDLEIMQILTRVNDRVARHFESQSDDPHFHEKKQIPCVVSMLTKELYFSQ
  in vitro cleavage of Ac-DEVD-AMC by the recombinant caspase: no cross reactivity against other caspases
